Assays:
3-ketomyristoyl-ACP = assay: In vitro thioesterase activity assay; format: biochemical
Protocol: To examine the potential thioesterase activity of ShMKS1 and ShMKS2 in vitro, we added 2.5 μg of each protein to a 500 μL solution of freshly prepared 3-ketomyristoyl-ACP. This protein-linked substrate was prepared using a sequential in vitro enzymatic system involving the addition of multiple starting materials and enzymes and the reaction allowed to proceed for 5 hr (see Examples, Materials, and Methods). Due to the highly unstable nature of 3-ketomyristoyl-ACP, this compound was not further purified but instead the solution in which it was synthesized was used as the “substrate solution” for qualitative in vitro thioesterase activity assays.
Aliquots of this substrate solution were incubated with buffer, ShMKS1, ShMKS2, or both ShMKS1 and ShMKS2 for 30 min at 23° C. […]
3-Ketomyristoyl-ACP was synthesized in a 500 μL reaction volume containing 1,3-bis(tris(hydroxymethyl)methylamino) propane (20 mM, pH 7.0), malonyl-CoA (0.2 mM), lauroyl-CoA (0.2 mM), ShACP (0.1 mM), EcFabD (10 μg) and MtFabH (10 μg). […] Hexane extracts were analyzed by GC-MS as described above. The values for heat-treated samples shown in FIG. 20 were corrected for loss of methylketones during the heating step, as determined by comparisons with standards.

E. coli cells = assay: GC-MS of methylketones in spent media of E. coli cells expressing ShMKS1, ShMKS2 or ShMKS2 (D79A); format: cell-based, Escherichia coli; conditions: with or without acid and heat treatment
Protocol: To test if expression of either ShMKS1 or ShMKS2 (without its transit peptide) in E. coli results in the formation of 3-ketoacids, we collected spent media of bacterial cells expressing each of them (by centrifuging out the cells at the end of the incubation period), heated the spent media at 75° C. for 30 min in the presence of 1 M sulfuric acid, extracted with hexane, then injected the hexane fraction in a GC-MS. […] On the other hand, the spent medium of E. coli cells expressing ShMKS2 contained 5.6±0.32 μg/μL of total methylketones, and the amount of methylketones increased […], to 40.7±2.1 μg/μL, after the spent medium was treated with acid and heat (FIG. 17).
The coding regions of ShMKS1 and ShMKS2 (minus the transit peptide-encoding region) were each amplified by PCR and inserted into the E. coli expression vector pEXP-TOPO-CT (Invitrogen). The expression vectors were introduced into E. coli BL21 Star (DE3) cells, and gene expression was induced by the addition of 0.5 mM IPTG after the culture optical density at 600 nm had reached 0.65. After induction with IPTG and growth at 18° C. overnight, the cells expressing ShMKS1 or ShMKS2 were centrifuged at 5000 rpm for 15 minutes, and 1-mL aliquots of the spent medium were placed in individual vials for further analysis. […]

[1] = Treatment of spent medium of ShMKS2-expressing E. coli with purified ShMKS1; format: biochemical; conditions: 3 μg/mL final concentration, incubated 2 h prior to hexane extraction
Protocol: Moreover, the treatment with purified ShMKS1 seemed to favor an increase in 2-tridecanone over other methylketones (FIG. 18).
Aliquots (1 mL) of the spent medium of E. coli expressing ShMKS2, obtained by centrifuging the culture solution after the incubation time at 5,000 rpm for 15 min and collecting the solution without the cells, were treated in the following ways: 1. Incubated with 40 μl (3 μg) of purified MKS1 in phosphate buffer (12.5 mM NaH2PO4, 125 mM NaCl, 2 mM DTT, pH 6.8) for 2 hrs at 30° C. 3. Incubated at 75° C. for 30 min followed by 30 min at 30° C. 4. Incubated with 1 mL of 2M H2SO4 at 75° C. for 30 min followed by 30 min at 30° C. After the various treatments, 1 mL of hexane containing 5 ng/μL linalool as an internal standard was added and the resulting mixture was vortexed and centrifuged at 5000 rpm for 10 min. Two μL of the resulting extract were injected into the GC-MS for determination of methylketones. GC-MS and product analysis were performed as described by Ben-Israel et al, (2009) Multiple biochemical and morphological factors underlie the production of methylketones in tomato trichomes, Plant Physiology 151: 1952-1964.

B1: ShMKS1: methylketone synthase 1 from Solanum habrochaites glabratum (SEQ ID NO: 17); recombinant, 3-ketoacid decarboxylase (protein)
chain: MEKSMSPFVKKHFVLVHTAFHGAWCWYKIVALMRSSGHNVTALDLGASGINPKQALQIPNFSDYLSPLMEFMASLPANEKIILVGHALGGLAISKAMETFPEKISVAVFLSGLMPGPNIDATTVCTKAGSAVLGQLDNCVTYENGPTNPPTTLIAGPKFLATNVYHLSPIEDLALATALVRPLYLYLAEDISKEVVLSSKRYGSVKRVFIVATENDALKKEFLKLMIEKNPPDEVKEIEGSDHVTMMSKPQQLFTTLLSIANKYK
modifications: ShMKS1
notes: recombinant, 3-ketoacid decarboxylase
amount of 2-tridecanone vs buffer-incubated sample treated with acid and heat (3-ketomyristoyl-ACP; 2.5 μg protein, 30 min at 23° C., directly extracted with hexane): slightly higher, but not significantly so | in vitro thioesterase activity (3-ketomyristoyl-ACP; 3-ketomyristoyl-ACP substrate solution): little or no | methylketones in spent medium (E. coli cells): no methylketones | levels of extractable methylketones vs spent medium treated with phosphate buffer alone [1]: significantly higher

Reference: patent publication US20110289632A1, “METHYLKETONE SYNTHASE, PRODUCTION OF METHYLKETONES IN PLANTS AND BACTERIA” (The Regents of the University of Michigan, priority 2009, published 2011)
